Results from patent US20130072665A1.

Key:
[1] = target: cynomolgus monkey PCSK9 (cynomolgus monkey); test: BIAcore, antibody immobilised, pH 7.4
[2] = target: cynomolgus monkey PCSK9 (cynomolgus monkey); test: KinExA solution equilibrium
[3] = target: cynomolgus monkey PCSK9 (cynomolgus monkey); test: BIAcore solution equilibrium, column To Cyno PCSK9
[4] = target: human PCSK9 (proprotein convertase subtilisin kexin type 9) (human) (UniProt Q8NBP7); test: BIAcore solution equilibrium, pH 6.0
[5] = target: human PCSK9 (proprotein convertase subtilisin kexin type 9) (human) (UniProt Q8NBP7); test: BIAcore solution equilibrium, pH 7.4
[6] = target: human PCSK9 (proprotein convertase subtilisin kexin type 9) (human) (UniProt Q8NBP7); test: BIAcore solution equilibrium, pH 5.5
31H4, anti-PCSK9 huIgG4 = test: KinExA solution equilibrium, % free 31H4.1 against [cPCSK9]; curve with diamonds; 10 pM or 100 pM 31H4 series not labelled
Chain of 31H4, anti-PCSK9 huIgG4 (heavy, as listed by the source, chain 1 of 2): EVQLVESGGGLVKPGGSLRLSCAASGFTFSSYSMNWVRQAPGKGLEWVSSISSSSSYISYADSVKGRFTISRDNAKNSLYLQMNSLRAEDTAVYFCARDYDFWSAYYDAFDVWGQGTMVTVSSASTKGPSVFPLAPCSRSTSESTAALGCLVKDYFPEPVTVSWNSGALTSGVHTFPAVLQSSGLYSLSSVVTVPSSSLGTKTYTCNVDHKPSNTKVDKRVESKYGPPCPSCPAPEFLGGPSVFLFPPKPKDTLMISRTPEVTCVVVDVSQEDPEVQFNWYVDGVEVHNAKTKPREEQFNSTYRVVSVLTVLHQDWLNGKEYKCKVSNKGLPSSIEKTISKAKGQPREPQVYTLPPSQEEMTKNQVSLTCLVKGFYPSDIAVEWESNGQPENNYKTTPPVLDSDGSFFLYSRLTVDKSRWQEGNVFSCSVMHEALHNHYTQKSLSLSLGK
Chain of 31H4, anti-PCSK9 huIgG4 (light, as listed by the source, chain 2 of 2): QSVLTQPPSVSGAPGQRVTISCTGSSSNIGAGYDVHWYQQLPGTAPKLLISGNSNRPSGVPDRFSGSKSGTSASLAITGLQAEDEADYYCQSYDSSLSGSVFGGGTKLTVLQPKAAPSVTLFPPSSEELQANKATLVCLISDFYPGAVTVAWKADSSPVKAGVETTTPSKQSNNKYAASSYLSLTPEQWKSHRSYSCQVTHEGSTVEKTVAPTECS

Substance: 31H4, anti-PCSK9 huIgG4 (antibody)
- Kd [1]: 0.19 nM
- Kd [2]: 2 pM

Substance: AMG145 (antibody)
- Kd [3]: 8 pM
- Kd [4]: 6 pM
- Kd [5]: 0.019 nM
- Kd [6]: 0.028 nM

Substance: cynomolgus monkey PCSK9 (from UniProt A0A7N9D9N8 150-747) (enzyme)
- IC50 (read off the curve) (31H4, anti-PCSK9 huIgG4): 10 pM
